Test results from article PMC11257539 (bioRxiv, 2024).
Non-standard residues stand in square brackets, D forms with d. No end group written: not given here. pS = N[C@@H](COP(=O)(O)O)C(=O)O

Legend:
[1] = target: SNX27 full-length (purified, as analyte in BLI and in liposome pelleting) (human, UniProt Q96L92 1-541); assay: co-sedimentation
[2] = target: SNX27 PDZ domain (purified, BLI analyte and ITC cell) (human, UniProt Q96L92 43-136); assay: ITC
[3] = target: T1, ESCPE-1 complex (SNX2/SNX6 heterodimer) (human, UniProt O60749;Q9UNH7); assay: co-sedimentation
T1 sequence 1: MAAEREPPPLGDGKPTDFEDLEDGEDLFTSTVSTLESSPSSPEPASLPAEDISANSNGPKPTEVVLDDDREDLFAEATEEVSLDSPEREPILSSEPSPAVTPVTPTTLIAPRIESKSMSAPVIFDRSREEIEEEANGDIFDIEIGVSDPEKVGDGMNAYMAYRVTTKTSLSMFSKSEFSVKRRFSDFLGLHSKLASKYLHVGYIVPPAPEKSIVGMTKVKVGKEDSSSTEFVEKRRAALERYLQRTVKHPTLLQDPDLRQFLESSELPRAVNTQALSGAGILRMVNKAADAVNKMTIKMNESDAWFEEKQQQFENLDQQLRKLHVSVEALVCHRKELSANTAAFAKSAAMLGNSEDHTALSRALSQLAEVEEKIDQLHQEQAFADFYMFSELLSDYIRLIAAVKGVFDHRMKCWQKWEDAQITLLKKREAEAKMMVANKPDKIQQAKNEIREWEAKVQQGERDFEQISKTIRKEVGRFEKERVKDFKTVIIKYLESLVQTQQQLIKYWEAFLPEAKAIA
T1 sequence 2: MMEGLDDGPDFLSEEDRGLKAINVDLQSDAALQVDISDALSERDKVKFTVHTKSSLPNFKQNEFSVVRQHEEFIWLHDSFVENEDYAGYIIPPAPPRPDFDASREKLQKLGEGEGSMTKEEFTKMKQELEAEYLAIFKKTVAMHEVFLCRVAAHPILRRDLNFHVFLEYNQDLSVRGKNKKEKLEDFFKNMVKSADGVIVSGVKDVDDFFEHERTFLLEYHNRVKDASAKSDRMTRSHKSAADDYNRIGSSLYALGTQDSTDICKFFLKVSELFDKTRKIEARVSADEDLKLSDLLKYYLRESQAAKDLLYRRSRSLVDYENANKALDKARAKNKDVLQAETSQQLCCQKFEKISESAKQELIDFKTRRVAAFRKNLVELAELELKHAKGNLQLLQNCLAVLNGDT

Binder: YTVLHRGHHQELEKLPIHNDPESLESCF [His-tagged PDZbm cargo: C-terminal cytosolic tail of 5-HT4(a)R (residues 360-388)]
- binding result [1]: binds

Binder: E[pS]LESCF [PDZbm cargo peptide 5-HT4(a)R-pS-5 (EpSLESCF)]
- Kd [2]: 1100 nM
- dH [2]: -15.2 kcal/mol
- stoichiometry N [2]: 1.1

Binder: SNVSYKYSKVNKEEETDENETEWLMEEIQ [CI-MPR cargo motif (residues 2347-2375)]
- binding result [3]: binds
